Molecular target: T1, Valosin-Containing Protein phosphorylated at Ser784 (pSer^784-VCP), endogenous, from genotoxin-treated human … (human, UniProt P55072 2-806, phosphoserine at 784)
T1 construct: Endogenous protein in lysates or fixed cells (HeLa, MDA-MB-231, U2OS and others) after SN38, etoposide or HU; it is tied to the assayed protein only through that definition; also called DNA-damage-induced ~100-kDa protein
Experiment: co-IP, western blot (FIG. 15B, 14B)
Procedure: Antibody-bound proteins were analyzed by Western blot for K48-ubiquitin, total VCP and pSer784-VCP. Same amount of control IgG was used to bind the etoposide-treated HeLa samples to control for non-specific binding. […] Samples were analyzed by Western blot for K48-ubiquitin, NPL4, and UFD1. Total VCP bound by the antibodies were visualized by silver staining. […] YFP-FLAG was expressed as a control.
Ser784 Phosphorylation Decreases VCP Association with NPL4/UFD1 and Polyubiquitinated Proteins: To study the regulatory mechanism of Ser784 phosphorylation, the effects on the VCP interaction with protein substrates were first examined. Total VCP (by a pan-VCP antibody) or pSer784-VCP (by 3E4) from etoposide or HU-treated HeLa cell lysates were immunoprecipitated and immunoblotted for co-absorbed K48-polyubiquitinated proteins. […] To better separate pSer784-VCP from unphosphorylated VCP, sequential pull-downs were performed from etoposide-treated HeLa cell lysates to first deplete pSer784-VCP using 3E4 and subsequently capture the remaining unphosphorylated VCP by the pan-antibody. […] Based on the levels of VCP in the input and supernatants after each pull-down, it is evident that Ser784 is phosphorylated at high stoichiometry in response to DNA damage (>50% of total VCP after overnight etoposide treatment) (FIG. 15A).

T1 sequence (P55072 2-806 limits assumed): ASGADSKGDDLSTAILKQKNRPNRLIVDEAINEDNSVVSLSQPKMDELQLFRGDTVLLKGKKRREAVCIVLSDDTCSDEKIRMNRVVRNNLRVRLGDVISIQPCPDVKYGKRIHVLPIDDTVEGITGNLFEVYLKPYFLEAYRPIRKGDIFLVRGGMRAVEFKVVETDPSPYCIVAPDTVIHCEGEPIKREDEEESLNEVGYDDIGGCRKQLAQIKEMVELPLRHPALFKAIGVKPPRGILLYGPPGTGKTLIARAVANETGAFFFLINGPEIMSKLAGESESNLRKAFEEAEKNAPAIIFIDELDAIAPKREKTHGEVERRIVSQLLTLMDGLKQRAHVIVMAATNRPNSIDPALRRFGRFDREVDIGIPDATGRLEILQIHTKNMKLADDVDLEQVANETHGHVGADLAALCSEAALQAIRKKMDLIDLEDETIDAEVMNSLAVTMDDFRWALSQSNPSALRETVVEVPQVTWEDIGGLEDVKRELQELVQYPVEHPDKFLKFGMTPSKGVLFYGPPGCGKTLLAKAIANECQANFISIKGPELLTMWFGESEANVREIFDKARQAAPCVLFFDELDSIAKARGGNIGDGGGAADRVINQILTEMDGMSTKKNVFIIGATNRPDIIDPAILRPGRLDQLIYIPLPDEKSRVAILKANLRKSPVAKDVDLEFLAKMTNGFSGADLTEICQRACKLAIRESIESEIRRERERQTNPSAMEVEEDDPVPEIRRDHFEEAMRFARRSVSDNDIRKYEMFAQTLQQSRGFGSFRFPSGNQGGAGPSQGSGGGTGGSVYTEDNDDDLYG

B1: NPL4 (other, UniProt Q8TAT6 2-608, looked up)
chain: AESIIIRVQSPDGVKRITATKRETAATFLKKVAKEFGFQNNGFSVYINRNKTGEITASSNKSLNLLKIKHGDLLFLFPSSLAGPSSEMETSVPPGFKVFGAPNVVEDEIDQYLSKQDGKIYRSRDPQLCRHGPLGKCVHCVPLEPFDEDYLNHLEPPVKHMSFHAYIRKLTGGADKGKFVALENISCKIKSGCEGHLPWPNGICTKCQPSAITLNRQKYRHVDNIMFENHTVADRFLDFWRKTGNQHFGYLYGRYTEHKDIPLGIRAEVAAIYEPPQIGTQNSLELLEDPKAEVVDEIAAKLGLRKVGWIFTDLVSEDTRKGTVRYSRNKDTYFLSSEECITAGDFQNKHPNMCRLSPDGHFGSKFVTAVATGGPDNQVHFEGYQVSNQCMALVRDECLLPCKDAPELGYAKESSSEQYVPDVFYKDVDKFGNEITQLARPLPVEYLIIDITTTFPKDPVYTFSISQNPFPIENRDVLGETQDFHSLATYLSQNTSSVFLDTISDFHLLLFLVTNEVMPLQDSISLLLEAVRTRNEELAQTWKRSEQWATIEQLCSTVGGQLPGLHEYGAVGGSTHTATAAMWACQHCTFMNQPGTGHCEMCSLPRT
notes: Detected by western blot in VCP co-immunoprecipitates; also called cofactor NPL4
binding result: binds

Reference: patent US20230190752A1 (WASHINGTON UNIVERSITY, published 2023)
